Substitutions are numbered along the chain they refer to.
T1: human TIGIT expressed on cells (human, UniProt Q495A1 22-244)
T1 sequence (looked up): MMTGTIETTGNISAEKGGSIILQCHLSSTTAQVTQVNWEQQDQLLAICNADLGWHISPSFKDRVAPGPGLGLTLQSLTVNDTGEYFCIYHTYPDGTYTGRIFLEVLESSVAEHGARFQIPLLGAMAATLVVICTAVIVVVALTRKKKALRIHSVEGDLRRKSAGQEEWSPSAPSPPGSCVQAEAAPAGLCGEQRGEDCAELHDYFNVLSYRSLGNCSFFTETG

T2: Human TIGIT-Fc (human, UniProt Q495A1 22-141)
T2 construct: bought (Creative Biomart); also called TIGIT-Fc antigen; TIGIT-Fc fusion antigen; not shown: Fc part
T2 sequence (looked up): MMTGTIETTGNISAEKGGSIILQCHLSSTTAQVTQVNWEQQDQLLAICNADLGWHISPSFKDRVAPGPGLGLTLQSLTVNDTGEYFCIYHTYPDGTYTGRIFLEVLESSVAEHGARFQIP

T3: Human TIGIT-His (human, UniProt Q495A1 22-141, biotinylated in the ForteBio Fab assay)
T3 construct: bought (Creative Biomart); also called Biotinylated Human TIGIT HIS; TIGIT-His monomer; not shown: His tag
T3 sequence (looked up): T2 sequence (looked up)

T4: Mouse TIGIT-Fc (mouse, UniProt P86176 29-148, limits assumed)
T4 construct: not shown: Fc part
T4 sequence (looked up): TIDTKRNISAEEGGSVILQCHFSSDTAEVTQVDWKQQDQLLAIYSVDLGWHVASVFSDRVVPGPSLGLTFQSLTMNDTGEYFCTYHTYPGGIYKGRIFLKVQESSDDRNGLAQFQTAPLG

T5: mouse TIGIT expressed on cells (mouse, UniProt P86176 29-249)
T5 construct: whole, on cells; on Jurkat cells engineered to express mouse TIGIT; also called mTIGIT; Jurkat-mTIGIT
T5 sequence (looked up): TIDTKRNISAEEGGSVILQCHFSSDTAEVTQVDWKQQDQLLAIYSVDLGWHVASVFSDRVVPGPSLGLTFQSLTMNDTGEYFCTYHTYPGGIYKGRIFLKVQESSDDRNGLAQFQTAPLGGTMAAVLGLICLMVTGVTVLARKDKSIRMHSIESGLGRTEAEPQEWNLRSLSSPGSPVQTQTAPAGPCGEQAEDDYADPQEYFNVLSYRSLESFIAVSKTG

B1: anti-TIGIT antibody clone 32919 (IgG) (antibody, V domains shown)
VH: QLQLQESGPGLVKPSETLSLTCTVSGGSISSGSYYLAWIRQPPGKGLEWIGSIFRSGSTYYNPSLESRVTISVDTSKNQFSLKLSSVTAADTAVYYCAIEGANFKDFGYVAFDIWGQGTTVTVSS
VL: EIVLTQSPATLSLSPGERATLSCRASQSVSSYLAWYQQKPGQAPRLLIYDASNRATGIPARFSGSGSGTDFTLTISSLEPEDFAVYYCQQENPRPRTFGGGTKVEIK
notes: human IgG; light chain optimised from 31288
B2: anti-TIGIT antibody clone 32931 (IgG) (antibody, V domains shown)
VH: B1 VH
VL: EIVMTQSPATLSVSPGERATLSCRASKSVSSNLAWYQQKPGQAPRLLIYFASTRATGIPARFSGSGSGTEFTLTISSLQSEDFAVYYCQQTSPWPRTFGGGTKVEIK
notes: as for B1
B3: anti-TIGIT antibody clone 26518 (IgG) (antibody, V domains shown)
VH: EVQLVESGGGLVQPGGSLRLSCAASGFTFSSYGMSWVRQAPGKGLEWVANIKQDGSEKYYVDSVKGRFTISRDNAKNSLYLQMNSLRAEDTAVYYCARVSYYYDSSKLRWAEYFQHWGQGTLVTVSS
VL: B1 VL with N53K, E91V, N92H, P93N, R94F, R96L
notes: parent clone
B4: anti-TIGIT antibody clone 29478 (IgG) (antibody, V domains shown)
VH: EVQLVESGGGVVQPGRSLRLSCAASGFTFESYGMVWVRQAPGKGLEWVASILYDGSNRYYADSVKGRFTVSRDNSKNTLYLQMNSLRAEDTAVYYCARVSYYYDSVELRWAEYFQHWGQGTLVTVSS
VL: B1 VL with N53K, E91V, N92H, P93N, R94F, R96L
B5: anti-TIGIT antibody clone 26486 (IgG) (antibody, V domains shown)
VH: QVQLQESGPGLVKPSETLSLTCAVSGYSISSGYYWAWIRQPPGKGLEWIGSIYHSGSTYYNPSLKSRVTISVDTSKNQFSLKLSSVTAADTAVYYCAIEGANYYDFGYVAFDIWGQGTMVTVSS
VL: B2 VL with K27Q, F50G, T91S, S92P
notes: parent clone
B6: anti-TIGIT antibody clone 26521 (IgG) (antibody, V domains shown)
VH: QVQLVQSGAEVKKPGSSVKVSCKASGGTFSSYAISWVRQAPGQGLEWMGGIIPIFGTANYAQKFQGRVTITADESTSTAYMELSSLRSEDTAVYYCARLHLGSSAYYGMDVWGQGTTVTVSS
VL: DIQMTQSPSSLSASVGDRVTITCRASQSISSYLNWYQQKPGKAPKLLIYAASSLQSGVPSRFSGSGSGTDFTLTISSLQPEDFATYYCQQRYVFPPTFGGGTKVEIK
notes: parent clone
B7: anti-TIGIT antibody clone 26432 (IgG) (antibody, V domains shown)
VH: QVQLVQSGAEVKKPGSSVKVSCKASGGTFSSYAISWVRQAPGQGLEWMGGIIPIFGTANYAQKFQGRVTITADESTSTAYMELSSLRSEDTAVYYCAREAQSYRVPFDIWGQGTMVTVSS
VL: EIVMTQSPATLSVSPGERATLSCRASQSVSSNLAWYQQKPGQAPRLLIYGASTRATGIPARFSGSGSGTEFTLTISSLQSEDFAVYYCQQYAIWPPFTFGGGTKVEIK
notes: also called parental clone 26432
B8: Fab of anti-TIGIT clone 26518 (Fab, V domains shown)
VH: B3 VH
VL: B1 VL with N53K, E91V, N92H, P93N, R94F, R96L
B9: Fab of anti-TIGIT clone 31288 (Fab, V domains shown)
VH: B1 VH
VL: B2 VL with K27Q, F50G, T91S, S92P
notes: Fab
B10: Fab of anti-TIGIT clone 26486 (Fab, V domains shown)
VH: B5 VH
VL: B2 VL with K27Q, F50G, T91S, S92P
B11: Fab of anti-TIGIT clone 32931 (Fab, V domains shown)
VH: B1 VH
VL: B2 VL
notes: Fab
B12: Fab of anti-TIGIT clone 32919 (Fab, V domains shown)
VH: B1 VH
VL: B1 VL
notes: Fab
B13: Fab of anti-TIGIT clone 29499 (Fab, V domains shown)
VH: B1 VH with G32S, S33R, L36W, F54G, R55T, E66K, A90T, K105R, T120M
VL: B2 VL with K27Q, F50G, T91S, S92P
B14: Fab of anti-TIGIT clone 29494 (Fab, V domains shown)
VH: B1 VH with L2V, T120M
VL: B2 VL with K27Q, F50G, T91S, S92P
B15: Fab of anti-TIGIT clone 26521 (Fab, V domains shown)
VH: B6 VH
VL: B6 VL

biological target: T1, human TIGIT expressed on cells; assay: cell-based or functional assay

EC50 of Jurkat-hTIGIT cell activation (luciferase), FIG. 12B [nM] | Binder
2.7 | B1
3.2 | B2

biological target: T1, human TIGIT expressed on cells; assay: cell-based or functional assay; remark: another data set of the same source

Induction over Isotype control (fold change), luciferase, Jurkat-hTIGIT + CHO-TCR-CD155, 133 nM [fold] | Binder
2.89 | B3
3.57 | B4
1.9 | B5
2.66 | B6

biological target: T2, Human TIGIT-Fc; assay: ForteBio BLI, IgG KD, avid
Procedure: Briefly, ForteBio affinity measurements were performed by loading IgGs on-line onto AHQ sensors. Sensors were equilibrated off-line in assay buffer for 30 min and then monitored on-line for 60 seconds for baseline establishment. Sensors with loaded IgGs were exposed to 100 nM antigen (human TIGIT-Fc, human TIGIT-His or cyno TIGIT-Fc) for 5 minutes, afterwards they were transferred to assay buffer for 5 min for off-rate measurement. Kinetics were analyzed using the 1:1 binding model.

Kd [nM] | Binder
4.62 | B7
0.63 | B3
0.527 | B4
0.589 | B5
0.541 | B6

biological target: T3, Human TIGIT-His; assay: ForteBio BLI, Fab KD, monovalent

Kd [nM] | Binder
1.24 | B8
2.09 | B9
21.9 | B10
1.18 | B11
1.42 | B12
1.66 | B13
1.66 | B14
9.87 | B15

biological target: T4, Mouse TIGIT-Fc; assay: ForteBio BLI, Fab KD, monovalent

Kd [nM] | Binder
25.5 | B13
53.6 | B14

biological target: T6, Cyno TIGIT-Fc (cynomolgus, UniProt A0A7N9I9V4 89-209); assay: ForteBio BLI, Fab KD, monovalent
T6 construct: not shown: Fc part
T6 sequence (A0A7N9I9V4 entry or part of it): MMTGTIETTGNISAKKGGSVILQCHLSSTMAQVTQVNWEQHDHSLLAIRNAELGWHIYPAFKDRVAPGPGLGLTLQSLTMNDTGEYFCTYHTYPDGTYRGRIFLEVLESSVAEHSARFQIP

Kd [nM] | binding result | Binder
4.47 |  | B8
25.1 |  | B9
 | no binding | B10
1.97 |  | B11
6.57 |  | B12
14.5 |  | B13
18.6 |  | B14
149 |  | B15

biological target: T1, human TIGIT expressed on cells; assay: flow cytometry, 100 nM Ab, Jurkat-hTIGIT vs untransfected
Procedure: (§1) Antibodies were incubated with the cells for 20 min at 4° C. in FACS buffer. […] Geometric mean fluorecence intensity was analysed using LSR BD Fortessa. Cell binding was recorded as the median florescence intensity of PE on the transfected line compared to the un-transfected line for each antibody (Table 3).

FON (Fold Over Negative) [fold] | Binder
154 | B3
680 | B1
182 | B4
143 | B5
741 | B2
146 | B6

biological target: T5, mouse TIGIT expressed on cells; assay: flow cytometry, 100 nM Ab, Jurkat-mTIGIT vs untransfected
Procedure: as §1

FON (Fold Over Negative) [fold] | Binder
233 | B3
500 | B4
199 | B5
218 | B6

From patent publication US20200407445A1 (ITEOS THERAPEUTICS, published 2020)
